Experimental data reported in publication PMC6826516.

B1: LgBiT-TEAD1-Myc (TEAD1 aa 194-411), wild type [not stated] / SmBiT-TAZ-Flag (TAZ aa 13-119), wild type [not stated] (parent)
chain 1: PGQQVIHVTQDLDTDLEALFNSVMNPKPSSWRKKILPESFFKEPDSGSHSRQSSTDSSGGHPGPRLAGGAQHVRSHSSPASLQLGTGAGAAGSPAQQHAHLRQQSYD
chain 2: RSIGTTKLRLVEFSAFLEQQRDPDSYNKHLFVHIGHANHSYSDPLLESVDIRQIYDKFPEKKGGLKELFGKGPQNAFFLVKFWADLNCNIQDDAGAFYGVTSQYESSENMTVTCSTKVCSFGKQVVEKVETEYARFENGRFVYRINRSPMCEYMINFIHKLKHLPEKYMMNSVLENFTILLVVTNRDTQETLLCMACVFEVSNSEHGAQHHIYRLVKD

Variants of: B1
Assay: NanoBiT assay (split-luciferase biosensor) in lysates of transfected HEK293T cells
Details: with SmBiT-TAZ-Flag (TAZ aa 13-119), 48 h after transfection, equal amounts of each biosensor plasmid, read off a plot

| Variant | response (fold over LgBiT-TEAD1 alone) |
| --- | --- |
| chain 2 E47A V49A I54A | 37 |
